In data set [1] the target is β-casein from bovine milk (bovine). Briefly: SEC; Superose 12 HR 10/30, room temperature, 50 mM Na2HPO4/NaH2PO4 pH 8.0, 250 mM NaCl; single proteins, HtrA3 proteins at 3 mg/ml, 50 μl loaded. (Size exclusion chromatography separates by hydrodynamic size, large species first.)
Data set [2] deals with the molecule itself. Briefly: crystal structure; ΔN-HtrA3 S305A, sitting-drop vapor diffusion, 1 M sodium/potassium phosphate buffer pH 5.0, 16°C; three molecules per asymmetric unit; 3.27 Å.
The target in data set [3] is ΔN-HtrA3-ΔPDZ (residues His6–122–349), proteolytically active (human) (UniProt P83110).
ΔN-HtrA3-ΔPDZ (residues His6–122–349), proteolytically active (human), sequence (P83110 122-349, stated change not applied): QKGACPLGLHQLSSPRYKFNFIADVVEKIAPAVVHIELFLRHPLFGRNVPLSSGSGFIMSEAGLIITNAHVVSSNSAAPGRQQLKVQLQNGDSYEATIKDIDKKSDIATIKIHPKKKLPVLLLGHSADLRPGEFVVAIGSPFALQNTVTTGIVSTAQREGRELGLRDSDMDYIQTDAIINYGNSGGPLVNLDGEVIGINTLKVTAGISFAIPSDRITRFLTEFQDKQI
Data set [4] addresses ΔN-HtrA3 (residues 130–453–His6), proteolytically active (human) (UniProt P83110).
Data set [5] has as its target ΔN-HtrA3S (residues 130–357–His6), proteolytically active (human) (UniProt P83110).

*1 amine or outer side, *2 acyl side, *3 side chain or, on linkers, in order; H or OH if unused. The star is where a group is joined. Benzoyl(5-NH,2-NO2) = O=C(c1cc(N[*:1])ccc1[N+](=O)[O-])[*:2]; Mca = COc1ccc2c(CC(=O)*)cc(=O)oc2c1

Here are results for three molecules from article PMC4481513, “Structural and Functional Analysis of Human HtrA3 Protease and Its Subdomains” (PLoS ONE, 2015).

The stoichiometry N is a count of units in the complex or per binding partner. In the case of “β-casein from bovine milk (natural protein)”, the stoichiometry N in data set [1] was 3.

B1: ΔN-HtrA3_(S305A) (residues 130–453–His6), proteolytically inactive N-terminally truncated HtrA3L with protease and PDZ domains (domain or fragment, human, UniProt P83110 130-453, looked up)
chain: LHQLSSPRYKFNFIADVVEKIAPAVVHIELFLRHPLFGRNVPLSSGSGFIMSEAGLIITNAHVVSSNSAAPGRQQLKVQLQNGDSYEATIKDIDKKSDIATIKIHPKKKLPVLLLGHSADLRPGEFVVAIGSPFALQNTVTTGIVSTAQREGRELGLRDSDMDYIQTDAIINYGNAGGPLVNLDGEVIGINTLKVTAGISFAIPSDRITRFLTEFQDKQIKDWKKRFIGIRMRTITPSLVDELKASNPDFPEVSSGIYVQEVAPNSPSQRGGIQDGDIIVKVNGRPLVDSSELQEAVLTESPLLLEVRRGNDDLLFSIAPEVVM
notes: human HtrA3 long isoform (HtrA3L), residues 130-453: serine protease domain and PDZ domain, catalytic serine changed to alanine; Chain A of the structure runs to residue 459, that is into the His tag; also called ΔN-HtrA3-His6; pPG1; source: E. coli BL21(DE3) clpP::Cm r, purified (Ni-NTA; before crystallization also Superdex 200 gel filtration); not shown: His6, C-terminal, kept
Regarding B1, the “stoichiometry N” value in data set [2] was determined as 3.

B2: Fluorescent substrate Ala(Mca)IRRVSYSF–ANB–NH2 (peptide)
peptide: Mca-AIRRVSYSF-{Benzoyl(5-NH,2-NO2)-NH2}
SMILES: CC[C@H](C)[C@H](NC(=O)[C@H](C)NC(=O)Cc1cc(=O)oc2cc(OC)ccc12)C(=O)N[C@@H](CCCNC(=N)N)C(=O)N[C@@H](CCCNC(=N)N)C(=O)N[C@H](C(=O)N[C@@H](CO)C(=O)N[C@@H](Cc1ccc(O)cc1)C(=O)N[C@@H](CO)C(=O)N[C@@H](Cc1ccccc1)C(=O)Nc1ccc([N+](=O)[O-])c(C(N)=O)c1)C(C)C
As to B2, the figures for the Km [μM] of cleavage of the peptide Ala(Mca)IRRVSYSF-ANB-NH2 (0.02 to 6 μM), 50 nM enzyme, 30°C, Michaelis-Menten fit in data set [3], in data set [4] and in data set [5] were 0.878 µM, 0.958 µM and 0.74 µM, respectively.
